From the Immune Epitope Database (IEDB) come the findings set out here.

Among the targets are HLA-A*30:01; HLA-A*31:01; HLA-A*68:01; HLA-A*33:01; HLA-A*03:01.
What all share (experiment): IEDB peptide-MHC binding, purified MHC/competitive/radioactivity; filed as Kd, often an IC50 or EC50 that approximates it; ≥ and ≤ were set here for values at or beyond the usual limits of such assays
What all share (details): source organism: Toxoplasma gondii

For orientation: Kd means a measure of binding affinity in units of concentration. As for AVVSLLRLLK, the Kd with HLA-A*30:01 is 8.1 nM; with HLA-A*31:01, 1300 nM; in the assay with HLA-A*68:01, 94 nM; with HLA-A*33:01, 1100 nM; in the assay with HLA-A*03:01, 17 nM.

Take STFWPCLLR: the dissociation constant (Kd) amounted to 1270 nM in the assay with HLA-A*30:01; 1.2 nM with HLA-A*31:01; 0.97 nM with HLA-A*68:01; 3.4 nM with HLA-A*33:01; 22 nM with HLA-A*03:01.
